The record followed here is patent US20250355001A1 (GTINVENT, published 2025).

Assay [1] concerns the target T1, human tau (hT40) with P301S and G335D of Line 66 mice (human, UniProt P10636 1-758).
T1 construct: transgene product in brain homogenate or plasma; also called L66 human tau
As to the kind of experiment: Western blot.

In assay [2] the target is T2, full length human tau protein 2N4R (hT40) (human, UniProt P10636 1-758).
T2 construct: recombinant; also called T441
As to the kind of experiment: SPR, hT40 immobilised, mAb analyte. The procedure:
For anti-tau mAb SPR measurements, htau40 was conjugated to the surface of a CM5 sensor chip using amine coupling as explained previously. Briefly, 2 μg/mL htau40 in 10 mM Sodium acetate buffer (pH 4.0) was passed over the activated chip surface (EDC/NHS) in flow cell 2 for a period for 45 s followed by blocking with 1 M ethanolamine-HCl PH 8.5. Flow cell 1 was set up as reference control and blocked simultaneously. Final immobilisation level of htau40 (Rmax) was approximately 250 RU. […] The mAb was added for a 120 s association period and 600 s dissociation period followed by a regeneration cycle of 30 s injection of glycine buffer pH 1.5 in between each cycle. Binding responses were analysed in Biacore X100 evaluation software and data fitted to a 1:1 binding model to obtain kinetic and affinity characterisation.
Target sequence in this assay (P10636 other isoform, or with tags, fused parts or gaps limits assumed): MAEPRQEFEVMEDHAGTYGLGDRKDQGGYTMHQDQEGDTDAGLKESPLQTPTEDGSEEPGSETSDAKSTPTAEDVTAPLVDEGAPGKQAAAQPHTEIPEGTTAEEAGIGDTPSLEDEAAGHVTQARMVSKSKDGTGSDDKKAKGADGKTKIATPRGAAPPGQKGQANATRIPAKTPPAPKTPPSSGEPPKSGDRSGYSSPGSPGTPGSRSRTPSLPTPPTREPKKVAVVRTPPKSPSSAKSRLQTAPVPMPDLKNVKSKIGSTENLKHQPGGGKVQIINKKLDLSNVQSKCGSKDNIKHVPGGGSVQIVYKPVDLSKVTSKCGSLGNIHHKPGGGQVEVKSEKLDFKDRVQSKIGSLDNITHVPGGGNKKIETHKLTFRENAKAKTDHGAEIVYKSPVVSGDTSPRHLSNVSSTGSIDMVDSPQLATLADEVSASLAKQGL

The target of assay [3] is T3, mouse tau (mouse, UniProt P10637 2-733).
T3 construct: endogenous protein of mouse brain or plasma; also called endogenous mouse tau
As to the kind of experiment: Western blot of brain homogenates.

Assay [4] concerns the target T4, human tau fragment 296-390 of Line 1 mice (human, UniProt P10636 613-707).
T4 construct: also called L1 fragment; 10-kDa tau fragment
Kind of assay: Western blot of brain homogenates.

The target of assay [5] is T5, dGAE (tau 297-391) (human, UniProt P10636 614-708).
T5 construct: monomer; also called dGAE95
Kind of assay: direct ELISA.

In assay [6] the target is T6, tau fragment 369-390 (human).
T6 peptide: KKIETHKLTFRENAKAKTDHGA
As to the kind of experiment: direct ELISA.

The target in assay [7] is T2, full length human tau protein 2N4R …. Kind of assay: hT40 ELISA.
Target sequence in this assay (P10636 other isoform, or with tags, fused parts or gaps limits assumed): as the sequence (P10636 other isoform, or with tags, fused parts or gaps limits assumed) above
Assay [8] addresses T7, tau fragment 369-391 (human).
T7 peptide: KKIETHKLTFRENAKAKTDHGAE
As to the kind of experiment: direct ELISA.

The target of assay [9] is T2, full length human tau protein 2N4R …. Kind of assay: ELISA. The procedure:
(§1) A series of binding ELISA was performed using various truncated versions of the tau protein and 13mer peptide libraries spanning the entire hT40 molecule for mapping the epitopes of anti-tau scAbs (Full list of protein antigens used is given in Table 14). In general, ELISA plates were coated with 1 μg/ml hT40 or dGA or dGAE or other truncated versions of the protein and in the case of biotinylated peptides, plates were coated with 5 μg/ml Streptavidin followed by 1 μg/ml biotinylated peptide. The plates were blocked with 2% MPBS and scAb samples added at desired starting concentrations and double diluted across the plate. Binding was detected using anti-Human C Kappa HRP conjugated secondary antibody and the resulting immunoreaction was developed and absorbance values measured as described above.

For assay [10], the target named is tau fragment 348-441 (human, UniProt P10636 665-758). As to the kind of experiment: direct ELISA.
For assay [11], the target named is tau fragment 1-111 (human, UniProt P10636 1-111). As to the kind of experiment: direct ELISA. How it is done: as §1
Assay [12] has as its target T8, tau fragment 1-49 (human).
T8 construct: also called Tau 1-49
T8 peptide: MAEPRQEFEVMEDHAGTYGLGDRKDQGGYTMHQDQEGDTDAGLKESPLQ
As to the kind of experiment: direct ELISA. The procedure:
as §1

Assay [13] deals with T2, full length human tau protein 2N4R …. Kind of assay: SPR, scAb captured, tau analyte. In a few lines:
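scAb captured on flow cell 2 of an antibody-coated chip, flow cell 1 as reference; tau analyte injected 120 s association, 420 s dissociation, glycine pH 2.0 regeneration, in multi-cycle or single-cycle kinetics format. Responses fitted to a 1:1 binding model for kinetics and affinity.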
Target sequence in this assay (P10636 other isoform, or with tags, fused parts or gaps limits assumed): as the sequence (P10636 other isoform, or with tags, fused parts or gaps limits assumed) above

Assay [14] deals with T9, tau parent peptide 319-331 (TSKCGSLGNIHHK).
T9 peptide: Biotin-TSKCGSLGNIHHK
As to the kind of experiment: ELISA on biotinylated peptide over streptavidin. How it is done:
Briefly, 5 μg/ml streptavidin (Thermo Fisher) was adsorbed to Nunc 96-well MaxiSorp plates and following incubation at 37° C. for 1 h, the plates were washed as normal and blocked with 2% MPBS. N-terminally biotinylated peptides (Prolmmune Ltd) were added to the plates and incubated for 1 h at 37° C. Subsequently, test scAbs at starting concentrations of 100-500 nM was added and double diluted across the plate for each peptide and incubated for 1 h at 37° C. Rest of the ELISA was conducted as described above and the plates were read at absorbance 450 nm. Immunoreactivity of the scAb of interest was quantified as the % of scAb was bound for each peptide at a chosen concentration (FIG. 15-20).

Assay [15] has as its target T2, full length human tau protein 2N4R …. Kind of assay: SPR, summary table. How it is done: The capture antibody was diluted 1/100 in 10 mM Sodium acetate buffer pH 5.0 and passed over the activated chip surface for a period of at least 420 s. Final ligand immobilisation levels over 12,000 RU were deemed to be satisfactory.
The scAb to be tested was added only to flow cell 2 so that flow cell 1 could act as a control to subtract any interaction with the analyte and the chip surface. […] The multi-cycle protocol was as follows-Three start-up cycles composed of an initial capture, to the desired level, of the scAb to be tested was performed followed by a 30 s injection of glycine buffer pH 2.0 after each cycle to regenerate the chip surface. […] The target was added for a 120 s association period and 420 s dissociation period followed by another regeneration, 30 s injection of glycine buffer pH 2.0 in between each cycle.
The single cycle kinetics protocol was similar and utilised the same level of scAb capture. […] In single cycle kinetics the regeneration step was performed only after the final analyte concentration was added. Binding responses were analysed in Biacore X100 evaluation software and data fitted to a 1:1 binding model to obtain kinetic and affinity characterisation.
Target sequence in this assay (P10636 other isoform, or with tags, fused parts or gaps limits assumed): as the sequence (P10636 other isoform, or with tags, fused parts or gaps limits assumed) above

Assay [16] has as its target T10, aggregated dGAE (human, UniProt P10636 614-708, limits assumed).
T10 construct: dGAE aggregated in vitro with DTT, 700 rpm, 37 C, 24 h; also called dGAE aggregates; dGAE agg
As to the kind of experiment: capture ELISA, mAb coated at 1 µg/ml, S1G2 scAb detection.

Assay [17] concerns the target T5, dGAE (tau 297-391). As to the kind of experiment: ELISA. How it is done: as §1
Assay [18] has as its target dGA (tau 297-390) (human, UniProt P10636 614-707). Kind of assay: ELISA. The procedure: as §1
For assay [19], the target named is tau fragment 275-305 (human). As to the kind of experiment: direct ELISA.
Assay [20] addresses tau fragment 337-368 (human). As to the kind of experiment: direct ELISA.

Where no end group is shown, it is not given here. The star is where a group is joined. Biotin = O=C1N[C@H]2[C@H](CS[C@H]2CCCCC(=O)*)N1

T3 sequence (P10637 other isoform, or with tags, fused parts or gaps limits assumed): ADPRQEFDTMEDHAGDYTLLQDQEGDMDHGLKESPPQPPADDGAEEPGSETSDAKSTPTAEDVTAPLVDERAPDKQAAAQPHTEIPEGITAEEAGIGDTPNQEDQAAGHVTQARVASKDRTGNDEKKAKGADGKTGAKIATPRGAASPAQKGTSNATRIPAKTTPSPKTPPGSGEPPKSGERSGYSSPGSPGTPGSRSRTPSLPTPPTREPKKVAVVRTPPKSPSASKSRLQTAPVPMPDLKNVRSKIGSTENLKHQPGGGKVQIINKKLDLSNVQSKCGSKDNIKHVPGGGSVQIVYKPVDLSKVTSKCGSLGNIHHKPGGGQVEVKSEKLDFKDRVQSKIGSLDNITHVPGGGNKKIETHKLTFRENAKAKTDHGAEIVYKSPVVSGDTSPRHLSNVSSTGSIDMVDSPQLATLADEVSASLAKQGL
T1 sequence (P10636 other isoform, or with tags, fused parts or gaps P301S G335D P301S G335D limits assumed): as the sequence (P10636 other isoform, or with tags, fused parts or gaps limits assumed) above, with P301S, G335D counted along it
Sequence of tau fragment 337-368 (human) (peptide, as listed by the source): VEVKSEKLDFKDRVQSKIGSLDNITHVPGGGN
Sequence of tau fragment 348-441 (P10636 665-758): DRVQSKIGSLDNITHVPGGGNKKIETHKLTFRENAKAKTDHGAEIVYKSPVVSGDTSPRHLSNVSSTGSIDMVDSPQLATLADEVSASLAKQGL
Sequence of tau fragment 275-305 (human) (peptide, as listed by the source): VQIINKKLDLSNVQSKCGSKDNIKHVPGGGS

B1: CC7 mAb (antibody, mouse IgG2a, V domains shown)
VH: QVQLQESGPSLVKPSQTLSLTCTVSGFSLTSNAVIWVRQAPGKAPEWVALIDVDGDAAYDPALKSRLSITRDTSKSQVSLSLRSVTTEDTAVYYCARDYGSWGYVSDIDYWGPGLLVTVSS
VL: RVVRTQPSSVSGSLGQRVSITCSGSYITGSSVGWFQQVPGSGLKTVIYDNNDRPSGVPDRFSGSKSGDTATLTISSLQAEDEADYYCASYDTSNIGLFGSGTRLTVLG
notes: sheep-mouse IgG2a chimeric mAb; also called CC7 antibody
On to B1, for which, in [1], the binding result is “binds”. In assay [2], this molecule displayed a dissociation constant Kd of 6.9 nM, a koff of 0.0316 s⁻¹ and a kon of 4.58e+06 M⁻¹ s⁻¹. For the same molecule, the binding result in [3] is reported as “no binding”. For the same molecule, the binding result in assay [4] is on record as “no binding”.

B2: S1F4 scAb (scFv, not shown: small tags and cut ends)
scFv: QVQLQESGPSLVKPSQTLSLTCTVSGFSLSSNSVGWVRQAPGKAPEWVAGIDTDGEEGYNPALNSRLSITRDTSKSQVSLSLSSVTSEDTAVYYCVRSYRADGLAYGYVQAIDYWGPGLLLTISSEGKSSGASGESKVDDQAVVTQPSSVSGSLGQRVSITCSGSFIGISSVGWFQQLPGSGLRTVIVASDGRPSGVPDRFSNSKSGNTATLTISSLQAEDEADYFCGSSDRTQYTGVFGSGTRLTVLG
notes: scAb
Regarding B2, the “EC50 (read off the curve)” value in [5] is around 0.3 µg/mL; in assay [6], around 2 µg/mL; in [7], around 0.05 µg/mL. Besides, the binding result in [8] is recorded as “binds”.

B3: CB2 scAb (scFv, not shown: small tags and cut ends)
scFv: QVQLQESGPSLVKPSQTLSLTCTVSGFSLSTNSVGWVRQAPGKAPEWVAGIDTDGEEGFNPVLKSRLSITRDTSKSQVSLSLSNVTSEDTAVYYCGRSYRTDGLAYGYVQAIDYWGPGLLVTISSEGKSSGASGESKVDDQSVLTQPSSVSGSPGQTVSITCSGSYIGSSGVGWFQQLPGSGLRTIIVASDGRPSGVPDRFSMSKSGNTATLTISSLQAEDEADYFCGSSDRTQYTGLFGSGTRLTVLG
notes: scAb
Regarding B3, the binding result in assay [9] and in [10] was “binds” throughout.

B4: 3aG3 scAb (scFv, not shown: small tags and cut ends)
scFv: QVQLQESGPSLVKPSQTLSLTCTVSGFSLSSNGVGWVRQAPGKVPEWVGDISSSGKAYANPALKSRLSITRDTAKTQVFLSLSSVTTEDTAVYYCVRCRDGGVSYGYDIDYWGPGLLVTVSSEGKSSGASGESKVDDQAVLTQPPSVSGSPGQRVSITCSGSSSNIGGGNYLSWFQQVPGSAPKLLIYGATSRASGVPDRFSGSRSGNTATLTISSLQAEDEADYYCASFDTSSGGIFGAGTRLTVLG
notes: scAb
Take B4: in [11], the “EC50 (read off the curve)” value was around 0.5 µg/mL. Also, in [12], the “EC50 (read off the curve)” value was around 1 µg/mL. In assay [13], this molecule displayed a Kd of 6.1 nM, a koff of 0.000387 s⁻¹ and a kon of 62900 M⁻¹ s⁻¹.

B5: CE2 scAb (scFv, not shown: small tags and cut ends)
scFv: QVQLQESGPSLVKPSQTLSLTCTVSGFSLTNYPVGWVRQAPGKALEWIGNIENDGSANYASALKSRLSITRDTSKNQVSLSLSSATTEDTAVYYCGREFGGSDGYTYFVDIDYWGPGLLVTVSSEGKSSGASGESKVDDQAVLTQPSSVSKSLGQSVSITCSGSSSNVGYGNYVSWFQQVPGSAPKILIYGATSRASGVPDRFSGSRSGNTATLTITSLQAEDEADYYCASYDGSSSGVFGSGTRLTVLG
notes: scAb
Take B5: in assay [14], the binding result was “binds”. In addition, the Kd in assay [15] is 5.03 nM. In assay [13], this molecule registered a Kd of 5.03 nM, a koff of 0.00108 s⁻¹ and a kon of 214000 M⁻¹ s⁻¹. Besides, the “EC50 (read off the curve)” value in assay [7] was around 0.1 µg/mL.

B6: CB7 mAb (antibody, mouse IgG2a, V domains shown)
VH: QVQLQESGPSLVKPSQTLSLTCTVSGFSLTNYRVGWVRQAPGKALEWVSNIRSGGTTWYNPALKSRLSITADTSKSQVSLSLSSVTTEDTAVYYCARDSSGDLYAYDYWGPGLLVTVSS
VL: QAVLTQPSSVSRSLGQSVSMTCSGSSSNVGYGNYMAWFQQVPGSAPKLLIYGATSRASGVPDRFSGSRSGNTATLTISSLQAEDEADYYCASYDSTSGGVFGSGTRLTVLG
notes: sheep-mouse IgG2a chimeric mAb; also called CB7 antibody
B6: the binding result is “binds” in assay [1], “no binding (tested: 800 nM)” in [16], “no binding” in assay [3] and “no binding” in assay [4]. The molecule also registered a Kd in [2] of 3.7 nM. The molecule also had a dissociation rate constant (koff) in [2] of 0.00945 s⁻¹. Also, the kon in assay [2] turned out to be 2.57e+06 M⁻¹ s⁻¹.

B7: NS1G7 scAb (scFv, not shown: small tags and cut ends)
scFv: QVQLQESGPSLVKPSQTLSLTCTVSGFSLTSYGVGWVRQAPGKTLEWISSISSGGTTFYNPALKSRLSITRDTSESQVSLSLSSVTTEDTAVYYCTRDVHIYYNDYGAAYGDRDYWGPGLLVTVSSEGKSSGASGESKVDDQAVVTQPPSVSGSPGQRVSITCSGSSSNIGGGNYVSWYQQLPGSGLRTLIYGTTSRASGVPDRFSGSGSGNTATLTISSLQAEDEADYYCASYDTNSGSVFGSGTRLTVLG
notes: scAb
In the case of B7, the binding result in assay [17], in assay [18], in [9], in assay [19] and in [20] was “binds” each time.
